Series [1] relates to 1,5-AG dehydrogenase (Ver. 0). In words: Substrate specificity of parent strain-derived 1,5-AG dehydrogenase. Conditions: activity for 1,5-AG as 100%; Ver. 0, 40%-saturated ammonium sulfate precipitate fraction. In kind it is biochemical, Pseudomonas sp. NK-85001. As for the experimental part:
(§1) The components other than the crude enzyme solution are mixed and kept at 37° C. for 10 minutes. Then, the crude enzyme solution is added to the reaction solution to initiate reaction. Decrease in absorbance at 600 nm for 1 minute with the temperature kept at 37° C. is determined.
A precipitate fraction of 40%-saturated ammonium sulfate was collected by centrifugation and dissolved in a 50 mM sodium phosphate buffer, pH 7.5.

Series [2] in a line: 1,5-AG dehydrogenase activity determination of crude enzyme solution (L-sorbose, DCIP, 1-m-PMS, decrease in absorbance at 600 nm). In kind it is biochemical. The conditions noted are these: crude enzyme solution, L-sorbose as substrate, 37° C. Here is the method: The E. coli JM109 strains transformed with the pTrc-PS15DH vectors confirmed in the paragraph (I) to have the insert fragment were inoculated to 3 mL of an LB medium containing 100 μg/mL ampicillin and cultured at 28° C. for 14 hours. Of this culture solution, a 0.2 mL aliquot was inoculated to 10 mL of an LB medium (containing 100 μg/mL ampicillin). Approximately 3 hours later, the rise of OD600 of the culture solution to 0.4 to 0.7 was confirmed, and 1,5-AG dehydrogenase expression in E. coli was then induced by the addition of 0.1 M IPTG (final concentration: 0.1 mM) to the medium. This culture solution was further cultured overnight at 28° C. and centrifuged at 10000×g for 5 minutes to precipitate cells. The supernatant was removed, and the pellet was then washed twice with a 0.85% aqueous NaCl solution. Cells were precipitated by centrifugation. Then, the microbial cells were suspended in 1 mL of a 50 mM sodium phosphate buffer, pH 7.5. Triton X-100 was added thereto at a concentration of 0.25%, and the microbial cells were disrupted using a bead impact-type cell disrupter MINI-BEAD BEATER (30 seconds×4, manufactured by Central Scientific Commerce, Inc.) while cooled in ice. After centrifugation at 20000×g for 10 minutes, the supernatant was examined as a crude enzyme solution for its 1,5-AG dehydrogenase activity. The composition of the reaction solution is as described below. Since the 1,5-AG dehydrogenase also reacts with L-sorbose as its substrate, L-sorbose was used for convenience instead of 1,5-AG in the enzymatic activity determination.
Composition of Reaction Solution:
as §1
The enzymatic activity can be determined according to the following equation: Enzymatic activity (U/mL)=(Δ600/min×0.6 (mL)×dilution ratio of crude enzyme solution)/(16.3×0.01 (mL)).
(§2) The E. coli JM109 containing the gene encoding each thermostable 1,5-AG dehydrogenase obtained in the paragraphs to [4] of EXAMPLE 2 was transplanted to 10 mL of an LB liquid medium containing 50 μg/mL ampicillin and 0.1 mM IPTG and shake-cultured at 30° C. for 16 hours. 10 mL of the shake-culture solution was centrifuged at 10000 rpm for 5 minutes. The culture supernatant was removed, and the pellet was then washed twice with a 0.85% aqueous NaCl solution. These microbial cells were suspended in 1 mL of a 50 mM sodium phosphate buffer (pH 7.5) containing 0.25% Triton X-100. The microbial cells were disrupted using a bead impact-type cell disrupter MINI-BEAD BEATER (30 seconds×4, manufactured by Central Scientific Commerce, Inc.) while cooled in ice. After centrifugation at 15000 rpm for 10 minutes, the supernatant was used as a crude enzyme solution. When the crude enzyme solution was heat-treated, the treatment was performed for 10 minutes in a water bath of 45° C., 50° C., 55° C. or 60° C.
(§3) The enzymatic activity of the 1,5-AG dehydrogenase was calculated by measurement by the same approach as that described in the paragraph (J) of EXAMPLE 1.
(§4) A specific activity that represents the enzymatic activity of the 1,5-AG dehydrogenase per mg of the crude enzyme solution was calculated according to the following equation: Specific activity (U/mg)=enzymatic activity (U/mL)/protein concentration of crude enzyme solution (mg/mL). Moreover, the rate of residual activity was calculated according to the following equation: Rate of residual activity (%)=(specific activity of crude enzyme solution after heat treatment/specific activity of crude enzyme solution before heat treatment)×100.
The 1,5-AG dehydrogenase activity was determined based on the method described in EXAMPLE 1, and its specific activity was determined according to the equation described in EXAMPLE 3.

Series [3] can be described thus: Stability of thermostable 1,5-AG dehydrogenase at heat treatment temperature (rate of residual activity). In kind it is physicochemical. Conditions: crude enzyme solution, water bath 45° C., 10 minutes. Here is the method: as §2, §3, §4
Series [4] in a line: Primary screening of variant gene library after heat treatment of microbial cells (DCIP decolorization with 1,5-AG). In kind it is biochemical. Conditions: microbial cells treated at 60° C. for 20 minutes; blue color of DCIP decolorized. Here is the method: Approximately 10100 colonies of the variant gene library were randomly picked up using a colony picker (PM-2s, manufactured by Microtec Co., Ltd.) and subjected to primary screening In the primary screening, a 1.2-mL 96-well square deep well plate (manufactured by NALGE NUNC INTERNATIONAL MK.) was used. The colonies were transplanted to 500 μL of an LB liquid medium containing 50 μg/mL ampicillin and cultured (28° C., 900 rpm) overnight in a 96-well square plate shaker (TITRAMAX 100, manufactured by HEIDOLPH). The 96-well square deep well plate was centrifuged at 2000 rpm for 10 minutes to separate microbial cells, which were then treated at −80° C. for 1 hour. The microbial cells were thawed and then treated at 60° C. for 20 minutes. Active variant enzymes were picked up by suspending the microbial cells thus treated at 60° C. by the addition of 200 μL of a 0.1 M potassium phosphate buffer (pH 7.0) containing 0.5% Triton X-100, 30 μL of 6 mM 2,6-dichlorophenolindophenol (DCIP) and 5 μL of 50 mg/mL 1,5-AG. The blue color of DCIP is decolorized for colonies having the enzymatic activity. As a result, it was observed that the blue color of DCIP was decolorized for colonies carrying a 1,5-AG dehydrogenase Ver. […] 0.

For `O=C[C@H](O)[C@@H](O)[C@@H](O)[C@H](O)CO` [Galactose], the Relative activity in series [1] is recorded as 0%.

B1: Ver. 1.0: thermostable 1,5-AG dehydrogenase, protein 21) of b101; net vs SEQ ID NO: 4: P50Q (protein)
chain: MEFGGQPDIVIIGSGIGGASIAAGLSASGADILILEAGESLPDRPENRDQHAIFQRGFFRPKEFWYETDGTPFNPGNYYNVGGNSKFYGAVLVRYRREDFEELAHLEGVSPAWPFAYDELEPWYCKAEELFQVRGELGDDPTEPYHSKPYSYPAIRDESPIADLRARLKKAGLHPASLPLGVDIERWLAKAKTPWDAHPNSNDGKMDAETCPLALALKHPNVGLETSARVTKLETGPDGKTIVAVHYVKNGEALVLRPKLVILSAGAVQSAALLLRSGLANRSDQVGRNFMNHNASAVIGFDPRYRNDSVYQKTFGFNDYYLSDGAGGPPLGNVQLLGRVSGAILKSNMRQVPEWFLNRIAGHTIDFYAMSEDLPSPESRVSVDGDRIILHWVRSNWKAHLMLVDKLKSALRAAGFPVVLSRAFDRRTPSHQCGTVRIGDNPATAPLDPYCRAYDHPNLYVVDASFLPTSAAVNPALTIAAQALRVADHLNREVLA
modifications: Pseudomonas sp. NK-85001
Molecule B1 registered a Specific activity in series [2] of 1.7 U/mg. In series [3], the “Rate of residual activity after 10-minute treatment at 45° C.” value turned out to be 8.3%. In series [4], the “Thermostability compared with 1,5-AG dehydrogenase Ver. 0” value is listed as “improved thermostability”.

The values above are taken from patent publication US8574882B2, “Thermostable 1,5-anhydroglucitol dehydrogenase, and method for measurement of 1,5-anhydroglucitol by using the same” (Nippon Kayaku Kabushiki Kaisha, priority 2008, dated 2013).
